Measurements from paper PMC4303316 (Biochemistry, 2014).
No end group written: not given here.

T1: EhPAK4 PBD, tag removed (crystallographic construct) (Entamoeba histolytica (strain HM-1:IMSS), UniProt C4LSU1 12-78)
T1 sequence (looked up): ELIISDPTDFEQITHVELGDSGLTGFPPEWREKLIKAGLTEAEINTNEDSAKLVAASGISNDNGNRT

B1: EhRacC^Q65L (GTPase-deficient EhRacC mutant, GTP-bound) (enzyme, Entamoeba histolytica (strain HM-1:IMSS), UniProt Q24816 1-182, looked up)
chain: MSEKPTSIKLVVVGDGAVGKTCLLISYSIRKFPEDYIPTVFDNYVVSLTAGTRQIQLALWDTAGLEEYDQLRPLSYSSASIFLICFSVTSSVSYDNVITKWHPEVIHFAPKVPIILVGTKLDTRNDPAIVKRLTEQGMTVINTAKGEELKNRIKAVKYIECSAKTSENLKTVFDEAVKTVLM
B2: His6-EhPAK5 PBD (p21 binding domain of Entamoeba histolytica p21-activated kinase 5) (domain or fragment, Entamoeba histolytica (strain HM-1:IMSS), UniProt C4MBQ2 105-161, looked up)
chain: His6-DISEPTDYHHLTHVAYEEGGFVGIPYEWENVFLACGITREEIKSNKEDAIKVLEFTQ
B3: His6-EhPAK4 PBD (p21 binding domain of Entamoeba histolytica p21-activated kinase 4) (domain or fragment, Entamoeba histolytica (strain HM-1:IMSS), UniProt C4LSU1 12-78, looked up)
chain: T1 sequence (looked up)

Tests used:
[1] = target: T1, EhPAK4 PBD, tag removed …; experiment: SEC
[2] = target: B1; experiment: SPR

| Binder | stoichiometry N [1] | Kd [2] [µM] |
| --- | --- | --- |
| B1 | 1 EhRacC:EhPAK4 |  |
| B2 |  | 1.9 ± 0.2 |
| B3 |  | 0.17 ± 0.03 |
